From the supplement of paper PMC7877785
± gives the uncertainty stated by the source.

Assay: self-splicing fitness, log relative to wild type (ln ratio); higher = more splicing; Tetrahymena group I intron in knt gene, E. coli kanamycin selection, DiMSum; sequences stand for … in CUCUCU…GGAGGGAAAAGUUAUCAGGCAUGCACCUGGUAGCUAGUCUUUAAACCAAUAGAUUGCAUCGGUUUAAAAGGCAAGACCGUCAAAUUGCGGGAAAGGGGUCAACAGCCGUUCAGUACCAAGUCUCAGGGGAAACUUUGAGAUGGCCUUGCAAAGGGUAUGGUAAUAAGCUGACGGACAUGGUCCUAACCACGCAGCCAAGUCCUAAGUCAACAGAUCUUCUGUUGAUAUGGAUGCAGUUCACAGACUAAAUGUCGGUCGGGGAAGAUGUAUUCUUCUCAUAAGAUAUAGUCGGACCUCUCCUUAAUGGGAGCUAGCGGAUGAAGUGAUGCAACACUGGAGCCGCUGGGAACUAAUUUGUAUGCGAAAGUAUAUUGAUUAGUUUUGGAGUACUCGUGGUCG
Outline: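 DiMSum derived fitness as the error-weighted combination of fold changes across replicates, kanamycin versus no kanamycin, normalised to wild type. E. coli BL21(DE3) held the library, which randomised all eight P1ex-region intron nucleotides within the knt kanamycin-resistance gene on pET-22b(+). Six replicate transformations grew overnight at 37°C or 30°C on LB agar with or without 25 μg/mL kanamycin, also containing 100 μg/mL carbenicillin, 50 μM IPTG and 0.2% rhamnose, and pooled colonies were amplicon-sequenced on an Illumina HiSeq 2500.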

Sequence	self-splicing fitness (ln) (30 °C)	self-splicing fitness (ln) (37 °C)
GUACAGCAAUAUUACGUGGC	-3.61 ± 0.17	-1.75 ± 0.13
GUACAGCAAUAUUACGUGUA	-3.18 ± 0.16	-2.32 ± 0.14
GUACAGCAAUAUUACGUUCC	-3.44 ± 0.15	-3.48 ± 0.42
GUAGAGCAAUAUUACGAAGU	-2.46 ± 0.23	-0.951 ± 0.17
GUAGAGCAAUAUUACGACUU	-0.172 ± 0.081	0.104 ± 0.1
GUAGAGCAAUAUUACGAUAA	-1.5 ± 0.15	0.242 ± 0.19
GUAGAGCAAUAUUACGAUCC	-1.22 ± 0.21	-0.765 ± 0.28
GUAGAGCAAUAUUACGCAUC	-1.49 ± 0.13	-1.37 ± 0.15
GUAGAGCAAUAUUACGCCGG	-1.41 ± 0.21	-0.336 ± 0.47
GUAGAGCAAUAUUACGCCUC	-0.746 ± 0.27	-0.67 ± 0.37
GUAGAGCAAUAUUACGCUAA	-0.515 ± 0.07	-0.264 ± 0.089
GUAGAGCAAUAUUACGGAUG	-3.96 ± 0.43	-2.08 ± 0.36
GUAGAGCAAUAUUACGGGCG	-1.68 ± 0.12	-1.19 ± 0.15
GUAGAGCAAUAUUACGGUUU	-1.75 ± 0.11	-0.8 ± 0.13
GUAGAGCAAUAUUACGUCAG	-3.1 ± 0.3	-2.07 ± 0.23
GUAGAGCAAUAUUACGUGAG	-2.33 ± 0.15	-0.687 ± 0.16
GUAGAGCAAUAUUACGUGCC		-2.12 ± 0.28
GUAGAGCAAUAUUACGUGUG	-0.928 ± 0.073	-1.6 ± 0.12
GUAGAGCAAUAUUACGUUAA	-2 ± 0.17	-0.228 ± 0.21
GUAUAGCAAUAUUACGACCU	-1.21 ± 0.18	-0.345 ± 0.18
GUAUAGCAAUAUUACGACGA	-1.78 ± 0.24	-0.483 ± 0.19
GUAUAGCAAUAUUACGAGUC	-3.65 ± 0.38	-0.711 ± 0.19
GUAUAGCAAUAUUACGAUCA	-1.33 ± 0.2	-0.768 ± 0.16
GUAUAGCAAUAUUACGAUGC	-2.65 ± 0.2	-2.55 ± 0.24
GUAUAGCAAUAUUACGCAAU	-1.98 ± 0.22	-2.85 ± 0.4

Sequence	self-splicing fitness (ln) (30 °C)	self-splicing fitness (ln) (37 °C)
GUAUAGCAAUAUUACGCCAU	-2.96 ± 0.32	-1.6 ± 0.22
GUAUAGCAAUAUUACGCCGU	-2.69 ± 0.23	-0.947 ± 0.19
GUAUAGCAAUAUUACGCUCG	-0.631 ± 0.15	-0.0296 ± 0.19
GUAUAGCAAUAUUACGCUUA	-2.39 ± 0.17	-1.23 ± 0.2
GUAUAGCAAUAUUACGGAUG	-2.65 ± 0.39	-1.99 ± 0.25
GUAUAGCAAUAUUACGGAUU	-2.58 ± 0.14	-0.56 ± 0.13
GUAUAGCAAUAUUACGGCGG		-2.1 ± 0.38
GUAUAGCAAUAUUACGGGGC		-1.61 ± 0.37
GUAUAGCAAUAUUACGGUCU	-1.47 ± 0.11	-0.548 ± 0.16
GUAUAGCAAUAUUACGUAUA	-3.48 ± 0.41	-1.8 ± 0.25
GUAUAGCAAUAUUACGUCCU	-1.56 ± 0.15	-0.00945 ± 0.19
GUAUAGCAAUAUUACGUGAC	-2.65 ± 0.13	-1.65 ± 0.14
GUAUAGCAAUAUUACGUGCG	-1.4 ± 0.12	-0.66 ± 0.15
GUCAAGCAAUAUUACGAGAC	-3.46 ± 0.19	-3.84 ± 0.26
GUCAAGCAAUAUUACGAUUU	-0.962 ± 0.08	-1.42 ± 0.11
GUCAAGCAAUAUUACGCAAA	-1.99 ± 0.15	-1.46 ± 0.16
GUCAAGCAAUAUUACGCACG	-1.96 ± 0.13	-1.49 ± 0.19
GUCAAGCAAUAUUACGCAUG	-4.62 ± 0.34	-2.33 ± 0.17
GUCAAGCAAUAUUACGCGCC	-4.2 ± 0.3	-1.95 ± 0.23
GUCAAGCAAUAUUACGCUCC	-1.87 ± 0.28	-1.62 ± 0.29
GUCAAGCAAUAUUACGGAAU	-2.07 ± 0.12	-1.09 ± 0.12
GUCAAGCAAUAUUACGGACA	-3.06 ± 0.39	-2.09 ± 0.19
GUCAAGCAAUAUUACGGCAU	-1.55 ± 0.083	-0.119 ± 0.1
GUCAAGCAAUAUUACGGUUA	-2.2 ± 0.14	-0.972 ± 0.1
GUCAAGCAAUAUUACGUAGU	-1.21 ± 0.068	-0.468 ± 0.1

Sequence	self-splicing fitness (ln) (30 °C)	self-splicing fitness (ln) (37 °C)
GUCAAGCAAUAUUACGUAUA	-2.31 ± 0.13	-0.798 ± 0.14
GUCAAGCAAUAUUACGUCAU	-2.22 ± 0.075	-1.16 ± 0.064
GUCAAGCAAUAUUACGUGAC	-5.1 ± 0.39	-4.13 ± 0.32
GUCAAGCAAUAUUACGUGAG	-1.2 ± 0.054	-0.505 ± 0.067
GUCAAGCAAUAUUACGUUAA	-2.02 ± 0.12	-1.74 ± 0.1
GUCAAGCAAUAUUACGUUAU	-2.02 ± 0.088	-1.15 ± 0.09
GUCCAGCAAUAUUACGAAGA	-0.611 ± 0.19	-1.51 ± 0.24
GUCCAGCAAUAUUACGAUCG	-1.8 ± 0.14	-1.54 ± 0.14
GUCCAGCAAUAUUACGAUCU	-2.44 ± 0.16	-0.0861 ± 0.12
GUCCAGCAAUAUUACGCAGG	-4.01 ± 0.18	-3.72 ± 0.24
GUCCAGCAAUAUUACGCCAG	-3.38 ± 0.23	-1.15 ± 0.2
GUCCAGCAAUAUUACGCCGU	-1.29 ± 0.13	-0.122 ± 0.13
GUCCAGCAAUAUUACGCGGG	-4.23 ± 0.26	-2.92 ± 0.24
GUCCAGCAAUAUUACGCGUC	-1.15 ± 0.088	0.346 ± 0.12
GUCCAGCAAUAUUACGCUAA	-0.5 ± 0.11	0.303 ± 0.11
GUCCAGCAAUAUUACGCUCA	-0.307 ± 0.092	-0.112 ± 0.11
GUCCAGCAAUAUUACGCUGA	-0.534 ± 0.092	-0.466 ± 0.13
GUCCAGCAAUAUUACGGAUG	-0.272 ± 0.077	0.023 ± 0.1
GUCCAGCAAUAUUACGGCAA	-0.33 ± 0.097	-0.363 ± 0.085
GUCCAGCAAUAUUACGGCUC	-0.432 ± 0.077	0.909 ± 0.12
GUCCAGCAAUAUUACGGGAA	-0.0663 ± 0.071	-0.474 ± 0.077
GUCCAGCAAUAUUACGGGAU	-4.04 ± 0.2	-2.76 ± 0.22
GUCCAGCAAUAUUACGUACU	-2.47 ± 0.14	-1.53 ± 0.14
GUCCAGCAAUAUUACGUCAU	-0.201 ± 0.077	0.269 ± 0.081
GUCCAGCAAUAUUACGUGUC	-0.424 ± 0.057	0.0485 ± 0.068

Sequence	self-splicing fitness (ln) (30 °C)	self-splicing fitness (ln) (37 °C)
GUCCAGCAAUAUUACGUUCC	-1.46 ± 0.083	-0.198 ± 0.1
GUCGAGCAAUAUUACGAACG		-1.02 ± 0.23
GUCGAGCAAUAUUACGCACG	-1 ± 0.28	
GUCGAGCAAUAUUACGCGGU		-1.94 ± 0.32
GUCGAGCAAUAUUACGGGAG	-3.67 ± 0.21	-2.4 ± 0.2
GUCGAGCAAUAUUACGUCCA	-2.21 ± 0.22	-2.53 ± 0.26
GUCGAGCAAUAUUACGUGGA		-2.46 ± 0.26
GUCGAGCAAUAUUACGUGGG	-2.55 ± 0.21	-0.374 ± 0.14
GUCUAGCAAUAUUACGACAA	-2.6 ± 0.23	-1.56 ± 0.26
GUCUAGCAAUAUUACGACCA	-0.99 ± 0.26	-2.1 ± 0.29
GUCUAGCAAUAUUACGACCU	-2.33 ± 0.21	-1.21 ± 0.17
GUCUAGCAAUAUUACGACGA	-1.86 ± 0.18	-0.293 ± 0.16
GUCUAGCAAUAUUACGAGUU	-2.13 ± 0.12	-1.32 ± 0.1
GUCUAGCAAUAUUACGAUCG	-3.06 ± 0.17	-1.09 ± 0.16
GUCUAGCAAUAUUACGAUUU	-0.743 ± 0.056	0.36 ± 0.064
GUCUAGCAAUAUUACGCAGG	-3.11 ± 0.3	-3.31 ± 0.37
GUCUAGCAAUAUUACGCAUA	-1.08 ± 0.14	-0.121 ± 0.12
GUCUAGCAAUAUUACGCAUU	0.0861 ± 0.1	0.379 ± 0.092
GUCUAGCAAUAUUACGCCCC	0.281 ± 0.13	-0.182 ± 0.12
GUCUAGCAAUAUUACGCCCU	-0.702 ± 0.36	-0.472 ± 0.37
GUCUAGCAAUAUUACGCCUU	-0.385 ± 0.16	0.266 ± 0.15
GUCUAGCAAUAUUACGCGAG	-1.08 ± 0.13	0.182 ± 0.13
